# Assay results reported in the supplement of paper PMC12042874.
# ± gives the uncertainty stated by the source.
# Experiment: amyloid nucleation score (Sup35N fusion, yeast selection) (log enrichment); library NNK3; higher = more nucleation; inactive = no reads after selection
# How it was run: (§1)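 On medium lacking adenine and uracil, psi-negative yeast expressing peptides of 20 random codons fused to Sup35N were grown 7 days at 30°C after a 24-hour induction with 100 μM copper sulfate. Illumina sequencing of input and output plasmid inserts gave the reads, and sequences under 100 input reads were excluded. The nucleation score is the DiMSum log enrichment of output over input reads, centred on the mode score of non-aggregating sequences.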
row,Substance,amyloid nucleation score
1,YKSRGMVYDYFGKMIYHLSG,0.63 ± 0.13
2,YKYGFAFCIIASAVSR,inactive
3,YLDRTSSMVTLVVSRGIF,inactive
4,YLFGRFPNGLVGRRGSGLLM,inactive
5,YLFPRVSLICERIWIENVGY,inactive
6,YLFRVTLNVALILMLSSRCE,inactive
7,YLGLRKIWIYL,inactive
8,YLICDFTFYVRGGGGMSQMT,0.655 ± 0.28
9,YLITHV,inactive
10,YLLDRLRVSDGYPLQSPWTT,inactive
11,YLLFIWSAYENKVGIGYITE,inactive
12,YLLVFCSNF,2.29 ± 0.091
13,YLMNVLFAYVD,inactive
14,YLMVNICMNDPWVYEMVSLY,0.902 ± 0.2
15,YLMVTVSALPSACCGVCVPW,1.48 ± 0.1
16,YLNDCDFGVVFEMESKLWTA,inactive
17,YLRKVSYNMHCRNWSWGDWS,inactive
18,YLRMLVDELKITHHH,inactive
19,YLRQIYFPCSTP,inactive
20,YLSNLYSPKRNWAAVL,inactive
21,YLSRLIIFLSLPD,inactive
22,YLWGGLRMYCRKLQHYFVLS,inactive
23,YLYGGVLGVSSDEGLADGKD,inactive

row,Substance,amyloid nucleation score
1,YMAAVTFFEVY,0.012 ± 0.34
2,YMACGHVAGPVH,inactive
3,YMDRFDK,inactive
4,YMFVLGYRMNCW,1.01 ± 0.17
5,YMTCTR,inactive
6,YMVMFAPSFSWRVSVQDKGN,3.08 ± 0.063
7,YMYELVTSRFKRNQVMCVID,inactive
8,YNECYWK,inactive
9,YNFGVMVWTSDF,2 ± 0.073
10,YNKGRNY,inactive
11,YNMLCCRLSWRYIDRRQGRR,3.17 ± 0.072
12,YNMYQTHLSSYNYHQDATKN,1.7 ± 0.095
13,YNNSTFYTEPTLWD,inactive
14,YNRANYAKRVCTSSVNVETE,0.294 ± 0.47
15,YNSYSSYKIVKLY,inactive
16,YNYGKGRWHALLDISKVEVK,inactive
17,YNYKSLMHLIGYDNRIAESR,inactive
18,YPCLSIGFSCSVLRMNVYLW,0.368 ± 0.21
19,YPCYLLMGAVLSKPYLTSYV,inactive
20,YPGTASAG,inactive
21,YPLASYGLMCGFETDYPGAA,inactive
22,YPMRCTCMDGGNSWDLM,0.177 ± 0.27
23,YPPWWFYIRNWLISEEE,inactive

row,Substance,amyloid nucleation score
1,YPSDPLLILDLGIAAC,inactive
2,YPSGPHDCYCHTLYEFPFFL,inactive
3,YQGNLGPHT,inactive
4,YQIFYSEVSFLMAG,inactive
5,YQKFNKLRLRNLPHLYDFVL,inactive
6,YQNVMWLC,inactive
7,YRIESFIGY,inactive
8,YRIWEQTLMFYVNLSRAKCF,inactive
9,YRLISCLVFISGRFSN,inactive
10,YRLLEQLTLSCWANRVLRLG,-0.077 ± 0.61
11,YRLRNCFRHMPAAQTFTP,inactive
12,YRLYDQLRGYRGLAYLTYVL,-0.187 ± 0.69
13,YRMIKHRTFDSPVLFS,inactive
14,YRNCLLRDMSWVVDFIDIKT,inactive
15,YRPAALSYQTRVCGTYWNDR,inactive
16,YRPVQSVQIVHLLSILILVW,inactive
17,YRRGYKITSLLSFYGNHRWP,inactive
18,YRRSGTYMSDSGVLVVKVCV,inactive
19,YRSLITLQAIRCGIWFCGLW,inactive
20,YRSSDQDVTVIMCLLANYYN,2.37 ± 0.057
21,YRYVCWFTTILTYTNGRFSS,inactive
22,YRYVNN,inactive
23,YRYYFRSEVPEDKEDDGYLL,inactive

row,Substance,amyloid nucleation score
1,YSALRFSKSCGRPCCVYNSF,inactive
2,YSCYSSLL,inactive
3,YSFHLIIESPKLVLFTHFTS,inactive
4,YSGCRVLLQWVEFSCRWIWY,inactive
5,YSGIRVLFYFSISDDFSQSI,0.756 ± 0.24
6,YSGTFDFLIKA,inactive
7,YSGWVCWSLQLTYMTFNFRL,inactive
8,YSHGTAKIPQAVVNDVIKSI,inactive
9,YSHNLWLA,inactive
10,YSHSGIRIKRLEASEYTWPS,inactive
11,YSLEGSRSTVWRGVCCKLAF,0.092 ± 0.24
12,YSLFWCNNNVRGGKASMWYR,inactive
13,YSLNTSFIYIKIRYH,1.28 ± 0.11
14,YSNGASLVWLVNVKK,2.19 ± 0.083
15,YSSANNCNWC,1.7 ± 0.077
16,YSSKIFHRLTK,inactive
17,YSSMYFL,inactive
18,YSTRVVRSTPWSKCSSPDME,inactive
19,YSVNSTLLLYVSKYEFIPCV,0.169 ± 0.29
20,YSWRGIFNGWFFCFMARVLG,inactive
21,YSYHS,inactive
22,YSYNKFAVEVYLSSLHPEMM,inactive
23,YTIPSPVGLVLDSPVEIRDL,inactive

row,Substance,amyloid nucleation score
1,YTKMGTRLAFFWIRMMMRGR,inactive
2,YTLAC,inactive
3,YTLIIRLCFFNIGCAYRFSM,inactive
4,YTLVVQTSMVVFLRLYSGRY,inactive
5,YTSEFVIAAWSLLFDDRYMS,inactive
6,YTSRFSSCLWESRSDEGRNM,inactive
7,YTVEWWVINCFGGKADL,inactive
8,YTWLVTVTDDGCRFEFSCEF,inactive
9,YTYWG,inactive
10,YVAYFSGIVLMHHSRDIQFP,0.496 ± 0.34
11,YVCVPCPCELSIQCCVTITF,2.01 ± 0.061
12,YVEMYN,inactive
13,YVGFRAQHTNEDDGTTVCRP,inactive
14,YVGVVVYLLPMLGALYGFGD,inactive
15,YVILPLEAPFS,1.49 ± 0.095
16,YVKPIGYTIFLWTGLGSP,inactive
17,YVLMGAYASVL,inactive
18,YVMDNNFM,inactive
19,YVNVSACNNGMLLGWQVG,inactive
20,YVRSHHNMNRTMVFKTCPWQ,inactive
21,YVSGKSSYIIF,0.116 ± 0.71
22,YVSTHLSVYTKSFRDMIAPG,inactive
23,YVVFYHLAVALSLKMASKRI,-0.826 ± 1.9

row,Substance,amyloid nucleation score
1,YVVSYPVGVRSNTHLLRIWR,inactive
2,YVWRDLKAMGFVYAGVCGKA,inactive
3,YVYRSRFKQDLRGFLFNFTY,inactive
4,YWCLYLNSNCKMW,0.31 ± 0.44
5,YWRFAMYQCIQFSRR,inactive
6,YWSIKELWRFRQLVWRKYIV,inactive
7,YWVSSYCIPMCGYQVWCVWG,inactive
8,YYAPVCYLSTKQGKARRPPP,inactive
9,YYDCIALFNSKQGSYLHYWY,inactive
10,YYGRNEVLYQSDNVRYSSSG,inactive
11,YYLDRVYIFSTQDL,1.67 ± 0.065
12,YYLMLSIGQYSHTCMDGYVM,inactive
13,YYMNVESALECECWTIFKPC,inactive
14,YYSFFDIFCVITSRANFGRP,1.28 ± 0.17
15,YYSFKIDRLRFVRM,inactive
16,YYVFVYLYSCVCFTGTGKSV,inactive
17,YYVSYN,inactive
18,YYVYSRGALLYHYILQMARL,inactive

# Experiment: amyloid nucleation score (Sup35N fusion, yeast selection) (log enrichment); library NNK2; higher = more nucleation; inactive = no reads after selection
# How it was run: as §1
row,Substance,amyloid nucleation score
1,AACYCCISRMVLYFSFHGSC,inactive
2,AAHQMMCRFGPIPF,1.22 ± 0.23
3,AAIIISLSYMI,2.23 ± 0.075
4,AALCGLKFVRERKWRKSILS,0.345 ± 0.65
5,AARFELYSNWS,2.05 ± 0.21
6,AASWHPAYCIYGPGGRDKVG,2.49 ± 0.12
7,ACANGDADVEWLSDFCEKDE,1.02 ± 0.35
8,ACANYGRVVWSSWDW,0.388 ± 0.39
9,ACIYRQRDS,-0.332 ± 0.56
10,ACLLIFLSTA,2.31 ± 0.078
11,ACMIEFRILRYRREMMSICS,6.489 ± 0.039
12,ACNLRAVYFT,-1.47 ± 0.39
13,ACNNRMISGIRTTDCYIYRP,-0.261 ± 0.33
14,ACNSTFNRIEVYARVMKDTS,3.96 ± 0.094
15,ACQAFTCW,0.967 ± 0.26
16,ACVNYYNSEATIVVRKGRMG,4.19 ± 0.071
17,ACWKRMN,inactive
18,ADDFINVNDTNKTVLCMCCG,-0.61 ± 0.78
19,ADEEFRRFIVPSFLPGSCSS,-0.08 ± 0.39
20,ADPVNRKFLHSWDF,0.112 ± 0.29
21,AEDMSQARA,1.15 ± 0.15
22,AFASYIKNDPPGEVPMAEL,0.258 ± 0.24
23,AFCAGVQAPEFPNLA,0.437 ± 0.65
24,AFDIFFNVVWRPFVHSCLAR,0.041 ± 0.56
25,AFKKYQS,-0.114 ± 0.74
26,AFLLLRSMYW,6.933 ± 0.026
27,AFLVYRKNNIPQYRVKVVDM,-0.225 ± 0.63
28,AFRGSYLKFSESTCTIGSLW,2.12 ± 0.13
